Source: patent US20100008909A1 (ZymoGenetics, published 2010)
“And” between values parts separate entries of the source, which are not always exact repeats. Equal entries are not always repeated.

Target: T1, biotinylated IL31 (human, UniProt Q6EBC2 24-164, biotinylated (sites not given))
T1 construct: also called human IL-31; huIL-31
T1 sequence: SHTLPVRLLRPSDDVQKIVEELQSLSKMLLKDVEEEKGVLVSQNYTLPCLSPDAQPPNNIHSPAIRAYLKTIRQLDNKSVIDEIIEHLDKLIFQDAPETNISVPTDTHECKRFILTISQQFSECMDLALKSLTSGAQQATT
Assay: ELISA with a dilution series of biotinylated IL31, 4-parameter fit (apparent Kd/EC50 as IL31 concentration); parental mouse mAb as control; average of duplicate
From the text: The assay format utilized a goat anti-human Fc immobilization for capture of human monoclonal antibodies from unprocessed cell culture conditioned media. A dilution series of biotinylated IL31 tested the “C” parameter of a 4-parameter fit which results in the apparent Kd (or EC50) in either ng/mL or nM of IL31. The assay sensitivity is high enough that dilute monoclonal antibody or chimeric antibody cell culture conditioned media can be evaluated. The Kd determined by this method generally approaches the Kd measured for purified, homogeneous monoclonal antibodies measured using Biacore.

B1: 292.63.5.3 (Lot E9289) Control monoclonal antibody (antibody, V domains shown)
VH: EVQLVESGGDLVKPGGSLKLSCAASGFTFSTFIMSWVRQSPEKRLEWVATINSGGYYTFHPDSVKGRFTISRDNAKNTLYLQMSSLRSEDTAIYYCARQEGWSSAYFSWGQGTLVTVSA
VL: DIVMTQSPSSLDMSEGQKVTMICKSSQSLLNGSNQKNYLAWYQQKPGQSPKLLVSFASTRDSGVPDRFIGSGSGTDFTLTITNVQAEDLADYFCQQHYDTPYTFGGGKLEIR
notes: Mouse anti-human IL-31 hybridoma monoclonal antibody
EC50: 0.0043 µg/mL and 0.26 nM
